# Measurements reported in publication PMC10385607 (2023).
# T1: Human ALCAM (28–501)-6xhistidine tag (human, UniProt Q13740 28-501)
# T1 chain: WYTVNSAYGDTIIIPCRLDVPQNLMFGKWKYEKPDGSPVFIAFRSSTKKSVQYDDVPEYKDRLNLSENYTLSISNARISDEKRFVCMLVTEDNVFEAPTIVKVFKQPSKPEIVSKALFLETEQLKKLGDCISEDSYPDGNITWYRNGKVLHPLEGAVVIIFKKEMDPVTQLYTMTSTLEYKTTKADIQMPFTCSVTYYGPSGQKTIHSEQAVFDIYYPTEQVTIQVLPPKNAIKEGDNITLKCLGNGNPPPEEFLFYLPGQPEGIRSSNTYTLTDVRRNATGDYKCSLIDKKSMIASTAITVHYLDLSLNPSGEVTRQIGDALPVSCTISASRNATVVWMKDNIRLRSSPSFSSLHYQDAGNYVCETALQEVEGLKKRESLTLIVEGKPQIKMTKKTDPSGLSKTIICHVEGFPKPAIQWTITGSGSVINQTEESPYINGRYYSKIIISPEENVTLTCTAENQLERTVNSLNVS
# Key:
# [1] = biological target: T1, Human ALCAM (28–501)-6xhistidine tag; test: ELISA; competition with CD6-Fc
# [2] = biological target: T1, Human ALCAM (28–501)-6xhistidine tag; test: SPR
# [3] = biological target: T1, Human ALCAM (28–501)-6xhistidine tag; test: SPR
IC50 [1],Kd [2],koff [3],Binder
31.3 nM,2.52 nM,,"scFv V200G1 (scFv, V domains shown) VH: not shown VL: SSVLTQPPSVSVAPGQTARITCQGDSLRSGYASWYQQKPGQAPVLVVYGKTGRPSGIPERFSGSSSGNTATLTISRVEAGDEADYYCNSSPPFSAEVVFGGGTKLTVL"
69.2 nM,12.7 nM,0.0011 s⁻¹,"scFv OPT (scFv, V domains shown) VH: not shown VL: SSVLTQPPSVSVAPGQTARITCQGDSLRSYYASWYQQKPGQAPVLVVYGKNNRPSGIPERFSGSSSGNTATLTISRVEAGDEADYYCNSSPPFSAEVVFGGGTKLTVL"
29.2 nM,5.08 nM,9.12e-05 s⁻¹,"scFv V20C10NC (scFv, V domains shown) VH: EVQLVESGGGLVQPGGSLRLSCAASGFTFSTGAMSWVRQAPGKGLEWVSAISGTGGTTYYADSVKGRFTISRDNSKNTLYLQMNSLRAEDTAVYYCAKGYVAFDYWGQGTLVTVSS VL: SSVLTQPPSVSVAPGQTARITCQGDSLRSGYASWYQQKPGQAPVLVVYPKMSRPSGIPERFSGSSSGNTATLTISRVEAGDEADYYCNSSPPFSAEVVFGGGTKLTVL"
,2.62 nM,0.000127 s⁻¹,"scFv V2D7 (scFv, V domains shown) VH: not shown VL: SSVLTQPPSVSVAPGQTARITCQGDSLRSGYASWYQQKPGQAPVLVVYGKNNRPSGIPERFSGSSSGNTATLTISRVEAGDEADYYCNSSPPFSAEVVFGGGTKLTVL"
,,0.00114 s⁻¹,"scFv IF8 (scFv, V domains shown) VH: not shown VL: SSELTQDPAVSVALGQTVRITCQGDSLRSYYASWYQQKPGQAPVLVIYGKNNRPSGIPDRFSGSSSGNTASLTITGAQAEDEADYYCNSSPPFSAEVVFGGGTKLTVL"
